{"source": "paper PMC9834252", "about": "(2023)", "target": "UbcH7-Ub (Homo sapiens, UniProt P68036)", "sequence (P68036 whole entry)": "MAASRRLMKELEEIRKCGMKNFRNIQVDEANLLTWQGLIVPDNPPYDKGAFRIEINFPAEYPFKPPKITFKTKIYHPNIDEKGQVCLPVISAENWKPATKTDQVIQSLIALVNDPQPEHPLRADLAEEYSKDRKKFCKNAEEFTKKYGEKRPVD", "assay": "ITC", "data": [{"binder": "HOIL-1 (protein) MDEKTKKAEEMALSLTRAVAGGDEQVAMKCAIWLAEQRVPLSVQLKPEVSPTQDIRLWVSVEDAQMHTVTIWLTVRPDMTVASLKDMVFLDYGFPPVLQQWVIGQRLARDQETLHSHGVRQNGDSAYLYLLSARNTSLNPQELQRERQLRMLEDLGFKDLTLQPRGPLEPGPPKPGVPQEPGRGQPDAVPEPPPVGWQCPGCTFINKPTRPGCEMCCRARPEAYQVPASYQPDEEERARLAGEEEALRQYQQRKQQQQEGNYLQHVQLDQRSLVLNTEPAECPVCYSVLAPGEAVVLRECLHTFCRECLQGTIRNSQEAEVSCPFIDNTYSCSGKLLEREIKALLTPEDYQRFLDLGISIAENRSAFSYHCKTPDCKGWCFFEDDVNEFTCPVCFHVNCLLCKAIHEQMNCKEYQEDLALRAQNDVAARQTTEMLKVMLQQGEAMRCPQCQIVVQKKDGCDWIRCTVCHTEICWVTKGPRWGPGGPGDTSGGCRCRVNGIPCHPSCQNCH", "values": [{"measurement": "Kd", "value": 5.3, "unit": "µM"}]}]}
